Test results as given in the supplement of paper PMC10567573.

B1: BTBD10 (parent)
chain: DRKLHSRPRKLYKHSSTSSRIAKG

Variants of: B1
Test: protein stability index of a GFP-peptide fusion (GPS, HEK-293T) (PSI 1-6); higher = more stable
Conditions: c terminus: a fixed tail appended
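Note: lentivirally expressed fusions sorted by FACS into six bins by GFP to DsRed ratio, PSI derived from sequencing read proportions per bin multiplied by bin number.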

| Variant | protein stability index |
| --- | --- |
| DRKLHSRLRKLYKHSSTSSRIAKG | 2.76 |
| DRKLHSRMRKLYKHSSTSSRIAKG | 3.02 |
| DRKLHSRNRKLYKHSSTSSRIAKG | 3.81 |
| DRKLHSRQRKLYKHSSTSSRIAKG | 4.24 |
| DRKLHSRRRKLYKHSSTSSRIAKG | 3.18 |
| DRKLHSRSRKLYKHSSTSSRIAKG | 3.5 |
| DRKLHSRTRKLYKHSSTSSRIAKG | 3.31 |
| DRKLHSRVRKLYKHSSTSSRIAKG | 3.05 |
| DRKLHSRWRKLYKHSSTSSRIAKG | 3.95 |
| DRKLHSRYRKLYKHSSTSSRIAKG | 2.82 |
| DRKLHSRPAKLYKHSSTSSRIAKG | 4.1 |
| DRKLHSRPCKLYKHSSTSSRIAKG | 3.74 |
| DRKLHSRPDKLYKHSSTSSRIAKG | 4.01 |
| DRKLHSRPEKLYKHSSTSSRIAKG | 4.19 |
| DRKLHSRPFKLYKHSSTSSRIAKG | 3.27 |
| DRKLHSRPGKLYKHSSTSSRIAKG | 4.3 |
| DRKLHSRPHKLYKHSSTSSRIAKG | 3.7 |
| DRKLHSRPIKLYKHSSTSSRIAKG | 3.02 |
| DRKLHSRPKKLYKHSSTSSRIAKG | 4.17 |
| DRKLHSRPLKLYKHSSTSSRIAKG | 3.85 |
| DRKLHSRPMKLYKHSSTSSRIAKG | 3.74 |
| DRKLHSRPNKLYKHSSTSSRIAKG | 4.13 |
| DRKLHSRPPKLYKHSSTSSRIAKG | 3.69 |
| DRKLHSRPQKLYKHSSTSSRIAKG | 4.11 |

| Variant | protein stability index |
| --- | --- |
| DRKLHSRPSKLYKHSSTSSRIAKG | 4.47 |
| DRKLHSRPTKLYKHSSTSSRIAKG | 3.84 |
| DRKLHSRPVKLYKHSSTSSRIAKG | 3.82 |
| DRKLHSRPWKLYKHSSTSSRIAKG | 3.51 |
| DRKLHSRPYKLYKHSSTSSRIAKG | 3.64 |
| DRKLHSRPRALYKHSSTSSRIAKG | 3.67 |
| DRKLHSRPRCLYKHSSTSSRIAKG | 3.55 |
| DRKLHSRPRDLYKHSSTSSRIAKG | 4.21 |
| DRKLHSRPRELYKHSSTSSRIAKG | 2.8 |
| DRKLHSRPRFLYKHSSTSSRIAKG | 3.18 |
| DRKLHSRPRGLYKHSSTSSRIAKG | 3.52 |
| DRKLHSRPRHLYKHSSTSSRIAKG | 4.07 |
| DRKLHSRPRILYKHSSTSSRIAKG | 2.62 |
| DRKLHSRPRLLYKHSSTSSRIAKG | 3.77 |
| DRKLHSRPRMLYKHSSTSSRIAKG | 3.24 |
| DRKLHSRPRNLYKHSSTSSRIAKG | 4.07 |
| DRKLHSRPRPLYKHSSTSSRIAKG | 3.25 |
| DRKLHSRPRQLYKHSSTSSRIAKG | 4.08 |
| DRKLHSRPRRLYKHSSTSSRIAKG | 3.97 |
| DRKLHSRPRSLYKHSSTSSRIAKG | 4.09 |
| DRKLHSRPRTLYKHSSTSSRIAKG | 3.58 |
| DRKLHSRPRVLYKHSSTSSRIAKG | 3.72 |
| DRKLHSRPRWLYKHSSTSSRIAKG | 3.33 |
| DRKLHSRPRYLYKHSSTSSRIAKG | 3.94 |

| Variant | protein stability index |
| --- | --- |
| DRKLHSRPRKAYKHSSTSSRIAKG | 4.08 |
| DRKLHSRPRKCYKHSSTSSRIAKG | 2.99 |
| DRKLHSRPRKDYKHSSTSSRIAKG | 3.71 |
| DRKLHSRPRKEYKHSSTSSRIAKG | 4.49 |
| DRKLHSRPRKFYKHSSTSSRIAKG | 4.91 |
| DRKLHSRPRKGYKHSSTSSRIAKG | 4.16 |
| DRKLHSRPRKHYKHSSTSSRIAKG | 3.93 |
| DRKLHSRPRKIYKHSSTSSRIAKG | 3.61 |
| DRKLHSRPRKKYKHSSTSSRIAKG | 4.19 |
| DRKLHSRPRKMYKHSSTSSRIAKG | 4.67 |
| DRKLHSRPRKNYKHSSTSSRIAKG | 3.46 |
| DRKLHSRPRKPYKHSSTSSRIAKG | 3.79 |
| DRKLHSRPRKQYKHSSTSSRIAKG | 4.13 |
| DRKLHSRPRKRYKHSSTSSRIAKG | 4.42 |
| DRKLHSRPRKSYKHSSTSSRIAKG | 4.57 |
| DRKLHSRPRKTYKHSSTSSRIAKG | 4.82 |
| DRKLHSRPRKVYKHSSTSSRIAKG | 3.82 |
| DRKLHSRPRKWYKHSSTSSRIAKG | 3.67 |
| DRKLHSRPRKYYKHSSTSSRIAKG | 3.7 |
| DRKLHSRPRKLAKHSSTSSRIAKG | 4.54 |
| DRKLHSRPRKLCKHSSTSSRIAKG | 3.84 |
| DRKLHSRPRKLDKHSSTSSRIAKG | 4.27 |
| DRKLHSRPRKLEKHSSTSSRIAKG | 4.28 |
| DRKLHSRPRKLFKHSSTSSRIAKG | 4.01 |

| Variant | protein stability index |
| --- | --- |
| DRKLHSRPRKLGKHSSTSSRIAKG | 4.65 |
| DRKLHSRPRKLHKHSSTSSRIAKG | 3.78 |
| DRKLHSRPRKLIKHSSTSSRIAKG | 3.3 |
| DRKLHSRPRKLKKHSSTSSRIAKG | 4.72 |
| DRKLHSRPRKLLKHSSTSSRIAKG | 3.88 |
| DRKLHSRPRKLMKHSSTSSRIAKG | 3.11 |
| DRKLHSRPRKLNKHSSTSSRIAKG | 4.12 |
| DRKLHSRPRKLPKHSSTSSRIAKG | 4.15 |
| DRKLHSRPRKLQKHSSTSSRIAKG | 4.01 |
| DRKLHSRPRKLRKHSSTSSRIAKG | 4.21 |
| DRKLHSRPRKLSKHSSTSSRIAKG | 4.65 |
| DRKLHSRPRKLTKHSSTSSRIAKG | 4.05 |
| DRKLHSRPRKLVKHSSTSSRIAKG | 4.08 |
| DRKLHSRPRKLWKHSSTSSRIAKG | 4.1 |
| DRKLHSRPRKLYAHSSTSSRIAKG | 4.04 |
| DRKLHSRPRKLYCHSSTSSRIAKG | 3.68 |
| DRKLHSRPRKLYDHSSTSSRIAKG | 4.23 |
| DRKLHSRPRKLYEHSSTSSRIAKG | 4.47 |
| DRKLHSRPRKLYFHSSTSSRIAKG | 2.77 |
| DRKLHSRPRKLYGHSSTSSRIAKG | 4.42 |
| DRKLHSRPRKLYHHSSTSSRIAKG | 3.65 |
| DRKLHSRPRKLYIHSSTSSRIAKG | 2.68 |
